This note sets out measurements from the nanobody polyreactivity screen of Harvey et al. (2022).

This series is described as follows: yeast display, Sf9 membrane polyspecificity reagent, FACS + sequencing; frameworks hold sequencing errors. The essentials: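 Synthetic nanobody libraries on Saccharomyces cerevisiae BJ5465 were galactose-induced for 36–48 hours, stained 1 hour at 4 °C with 10% biotinylated, detergent-solubilized Sf9 membrane reagent and enriched on streptavidin microbeads. FACS then separated cells into low and high (top ~1%) gates by anti-HA (expression) and streptavidin (reagent binding) fluorescence. Genes were colony-PCR amplified, MiSeq 2 × 250 sequenced and CDR-length filtered. A clone's polyreactivity label is that of its gate of origin.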
Regarding “QVQLVESGGGLVQAGGSLRLSCAASGITFYLNAMGWYRQAPGKERELVADITVSGGSTYYADSVKGRFTISRDNAKNTVYLQMNSLKREDTAVYYCAADLTISYSQEYYYWGQGTQVTVSS”, the “polyreactivity (PSR sort gate)” value was “low polyreactivity”.

“QVQLVESGGGLVQAGGSLRLSCAASGITFYLYAMGWYRQAPGKERELVASITTDDSTNYADSVKGRFTISRDNAKNTVYLLMNSLKPEDTAVYYCATASYHRHHHGYDYWGQGTQVTVSS”: the “polyreactivity (PSR sort gate)” value is “low polyreactivity”.

Take “QVQLVESGGGLVQAGGSLRLSCAASGITFYLYVMGWYRQAPGKERELVAAISSGGSTYYADSVKGRFTISRDNAKNTVYLQMNSLKPEDTAVYYCAADVARYLHYSYHEDYYWGQGTQVTVSS”: the “polyreactivity (PSR sort gate)” value is “low polyreactivity”.

As for “QVQLVESGGGLVQAGGSLRLSCAASGITFYPYAMGWYRQAPGKERELVAAISRRGGSTNYADSVKGRFTISRDNAKNTVYLQMNSLKPEDTAVYYCNRDYPIGYRQDPVYYWGQGSQVTVSS”, the “polyreactivity (PSR sort gate)” value is listed as “high polyreactivity”.

On to “QVQLVESGGGLVQAGGSLRLSCAASGITFYQYAMGWYRQAPGTETELVAGISYSGGSTYYADSVKGRFTISRDNAKNTVYLQMNSLKPEDTAVYYCAAVQPVGLYPRTKYYYWGQGTQVTVSS”, for which the “polyreactivity (PSR sort gate)” value is listed as “high polyreactivity”.

With “QVQLVESGGGLVQAGGSLRLSCAASGITFYRNARGWYRQAPGNEMELVAAITWNGGRTYYADSVKGRVTISRDNAKNTVDLQMNSLKPEDTAVYDCAADSGTRNLASYRYYYWGQGTLVTVSS”, the “polyreactivity (PSR sort gate)” value is reported as “low polyreactivity”.

As to “QVQLVESGGGLVQAGGSLRLSCAASGITFYRYAMGWYRQAPGKERALVAAISWRSGSTNYADSVKGRFTISRDNAKNTVYLQMNSLKPADTAVYYCAARVADYPLFGGSSYNRMEYWGQGTQVTVTS”, the “polyreactivity (PSR sort gate)” value is on record as “low polyreactivity”.

Consider “QVQLVESGGGLVQAGGSLRLSCAASGITFYSNAMGWYRQAPGKERELVARISSSGGSTYYADSVKGRFTISRDNAKNTVYLQMNSLKPEDTAVYYCAARRLWVRGYNYWGQGTQVTVSS”, for which the “polyreactivity (PSR sort gate)” value is reported as “high polyreactivity”.

On to “QVQLVESGGGLVQAGGSLRLSCAASGITFYSYAMGWYRQAPGKEMELVAAITRSGGSTYYADSVKGRFTISRDNAKNTVYLQMISLKPEDTAVYYCAAEEGRVFSGGYEYWGQGTQVTVSS”, for which the “polyreactivity (PSR sort gate)” value is reported as “high polyreactivity”.

“QVQLVESGGGLVQAGGSLRLSCAASGITFYSYAMGWYRQAPGKERELVAAISSSGTTYYADSVKGRFTISRDNAKNTVYLQMNSLKPEDTAVYYCAVDSYYKYDYWGQGTQVTVSS”: the “polyreactivity (PSR sort gate)” value is reported as “low polyreactivity”.

Regarding “QVQLVESGGGLVQAGGSLRLSCAASGITFYSYAMGWYRQAPGKERELVAAISTTVGSTYYADSVKGRFTISRDNAKNTVYLQMNSLKPEDTAVYYCNAYRVYAWIEYNYWGQGTQVTVSS”, the “polyreactivity (PSR sort gate)” value is “low polyreactivity”.

Turning to “QVQLVESGGGLVQAGGSLRLSCAASGITFYVNAMGWYRQAPGKERELVAAISNGGSTNYADSVKGRFTISRDNAKNTVYLQMNSLKPEDTAVYYCAARPSYGRYRYYYWGQGTQVTVSS”, the “polyreactivity (PSR sort gate)” value was “high polyreactivity”.

Regarding “QVQLVESGGGLVQAGGSLRLSCAASGITFYVYAMGGSRQAPGKERELVAAMTRSGGITSYADSVKGRFTISRDNAKNTGYLQMNSLKPEDTAVYYCAAERTNQHYHIQGVGYWGQGTQVTVSS”, the “polyreactivity (PSR sort gate)” value was “low polyreactivity”.

With “QVQLVESGGGLVQAGGSLRLSCAASGITFYWYAMGWYRQAPGKDRELVASITGNGGGTSYADSVKGRFTIARDNAKNTVYLQMNSLKPEDTAVYYCNTSVGGKEYDSWGQGTQVTVTS”, the “polyreactivity (PSR sort gate)” value is listed as “low polyreactivity”.

With “QVQLVESGGGLVQAGGSLRLSCAASGITFYWYAMGWYRQAPGKERELVARISSTGGSTYYADSVKGRFTISRDNAKNTVYLQLNSLKPEDTAVYYCNAVGRLYLYGSWGQGTQVTLSS”, the “polyreactivity (PSR sort gate)” value is given as “high polyreactivity”.

As for “QVQLVESGGGLVQAGGSLRLSCAASGITFYWYTMGWYRQAPGKERELVADIDGDGGSTYYADSVKGRFTISRDNAKNTVYLQMNSLKPEDTAVYYCAAQVWPWGYDYWGQGTQVTVSS”, the “polyreactivity (PSR sort gate)” value is recorded as “high polyreactivity”.

Take “QVQLVESGGGLVQAGGSLRLSCAASGITFYYNAMGWYRQAPGKERELVAAISDGSSTNYADSVKGRFTISRDNAKNTVYLQMNSLKPEDTAVYYCNASWSFPVSGYESRSPGKLDYWGQGTQVTVYS”: the “polyreactivity (PSR sort gate)” value is on record as “low polyreactivity”.

In the case of “QVQLVESGGGLVQAGGSLRLSCAASGITFYYNAMGWYRQAPGKERELVATINDSDGSTYADSVKGRFTISRDNAKNTVYLQMNSLKPEDTAVYYCNAQTRAGYYFGYGYWGQGTQVTVSS”, the “polyreactivity (PSR sort gate)” value was “low polyreactivity”.

Regarding “QVQLVESGGGLVQAGGSLRLSCAASGITFYYYAMGWYRQAPGKERELVAAISDNGSRTYYADSVKGRFTISRDNAKNTVYFQMNSLKPEDTAVYYCAADWFYTNVRYRYAYGGYYWGQGTQVTVSS”, the “polyreactivity (PSR sort gate)” value is listed as “high polyreactivity”.

“QVQLVESGGGLVQAGGSLRLSCAASGITFYYYAMGWYRQAPGKERELVAAISRSGGRTYYADSVKGRFTISRDNAKNTVYLQMNSLKPEDTAVYYCAAVRYQGGDSSIEYDYWGQGTQVTVSS”: the “polyreactivity (PSR sort gate)” value is given as “high polyreactivity”.

In the case of “QVQLVESGGGLVQAGGSLRLSCAASGITFYYYAMGWYRQAPGKERELVAAISSRGGSTYYADSVKGRFTISRDNAKNTVYLQMNSLKPEDTAVYYCAALYDYWGQGTQVTVSS”, the “polyreactivity (PSR sort gate)” value is “high polyreactivity”.

Take “QVQLVESGGGLVQAGGSLRLSCAASGITFYYYDMGWYRLAPGKERELVAAISWSGGRTYYADSVKGRFTISRDNEKNTVYLQMNSLKPEDTAVYYCASGYYVYHFVSLYGGDYWGQGTQVTVSS”: the “polyreactivity (PSR sort gate)” value is recorded as “high polyreactivity”.

For “QVQLVESGGGLVQAGGSLRLSCAASGITGHNAMGWYIQAPGKERELVARISSGGRTNYADSVKGRFTISRDNAKNTVYLQMNSLKPEDTAVYYCAAGFRVGSFLRYNYWGQGTQVTVSS”, the “polyreactivity (PSR sort gate)” value is “high polyreactivity”.

For the sequence “QVQLVESGGGLVQAGGSLRLSCAASGITIDVYGMGWYRQAPGKERELVASIRRRGGSTYYADSVKGRFTISRDNAKNTVYLQMNSLKPEDTAVYYCAAVPSDGHRIWSWDPYPEYDYWGQGTQVTVSS”, the “polyreactivity (PSR sort gate)” value is “low polyreactivity”.

As for “QVQLVESGGGLVQAGGSLRLSCAASGITIDYYAMGWYRQAPGKERELVAAISSVGNTNYADSVKGRFTISRDNAKNTVYLQMNSLKPEDTAVYYCATYAYYLYHVGTAYDYWGQGTQVTVSS”, the “polyreactivity (PSR sort gate)” value is on record as “high polyreactivity”.

Turning to “QVQLVESGGGLVQAGGSLRLSCAASGITIGSNVMGWYRQAPGKERELVAAISQSGGRTYYADSVKGRFTISRDNAKNTVYLQMNSLKPEDTAVYYCAKRQRSFYGRPMGDYWGQGTQVTVSS”, the “polyreactivity (PSR sort gate)” value is “high polyreactivity”.

On to “QVQLVESGGGLVQAGGSLRLSCAASGITIKRYAMGWYRQAPGKEREFVATISQSGTSTYYADSVKGRFTISRDNAKTTVYLQMISLKPEDTAVYYCAADFIGYWYGYYSWGQGTQVTVSS”, for which the “polyreactivity (PSR sort gate)” value was “low polyreactivity”.

Take “QVQLVESGGGLVQAGGSLRLSCAASGITIPVYMGWYRQAPGKERELVASISTIGGTTYYADSVKGRFTISRDNAKNTVYLQMNSLKPEDTAVYYCAADHPWSWYDYWGQGTQVTVSS”: the “polyreactivity (PSR sort gate)” value was “low polyreactivity”.

Consider “QVQLVESGGGLVQAGGSLRLSCAASGITIVLYAMGWYRQAPGQERQLVAAINIDGNTNYADSVKGRFTISRDNAKNTVYLQMNSLKPEDTAVYYCAATFVPAQSRYTGSKYDYWGQGTQVTVSS”, for which the “polyreactivity (PSR sort gate)” value is recorded as “low polyreactivity”.

In the case of “QVQLVESGGGLVQAGGSLRLSCAASGITIVLYTMGWYRQAPGKEREFVAGITRGGSTYYADSVKGRFTISRDNAKNTVYLQMNSLKPEDTSVYYCAARPRFLRASVEYDYWGQGTQVTVSS”, the “polyreactivity (PSR sort gate)” value is listed as “high polyreactivity”.

Take “QVQLVESGGGLVQAGGSLRLSCAASGITIVNYVMGWYRQAPGKERELVAAISIGGGTYYADSVKGRFTISRDNEKNTVYLQMNSLKPEDTAVYYCNASYGGLSFYIGVYVTGYDYWGQGTQVTVSS”: the “polyreactivity (PSR sort gate)” value is “low polyreactivity”.

Regarding “QVQLVESGGGLVQAGGSLRLSCAASGITIYDYTMGWYRQAPGKERELVAVITSAGSTYYADSVKGRFTISRDNAKNTVYLQMNSLKPEDTAVYYCAAVIVSRGRKYRLDYWGQGTQVTVSS”, the “polyreactivity (PSR sort gate)” value is recorded as “high polyreactivity”.

As for “QVQLVESGGGLVQAGGSLRLSCAASGITIYGYAMGWYRQAPGKERELVAAITRSGGGTYYADSVKGRFTISRDNEKNTVYLQMISLKPEDTAVYYCAADSYSQYTMDYWGQGTQVTVSS”, the “polyreactivity (PSR sort gate)” value is listed as “high polyreactivity”.

As to “QVQLVESGGGLVQAGGSLRLSCAASGITLAGYVMGWYRQAPGKERELVADISSSGDSTYYADSVKGRFTISRDNAKNTVYLQMISLKPEDTAVYYWAAEEIIPLIYKGYPFDYWGQGTQVTVSS”, the “polyreactivity (PSR sort gate)” value is “low polyreactivity”.

In the case of “QVQLVESGGGLVQAGGSLRLSCAASGITLGYYAMGWYRQAPGKERELVAAISYRGGNTYYADSVKGRFTISRDNAKNTVYLQRNSLKPEDTAVYYCNADLGYESGWWSKYDYWGQGTQVTVSS”, the “polyreactivity (PSR sort gate)” value is reported as “low polyreactivity”.

With “QVQLVESGGGLVQAGGSLRLSCAASGITLGYYVMGWYRQAPGKERELVAAISSSGGRTYYADSVKGRFTISRDNAKNTVYLQMNSLKPEDTAVYYCAADLGRGIYDYWGQGTQVTVSS”, the “polyreactivity (PSR sort gate)” value is “low polyreactivity”.

“QVQLVESGGGLVQAGGSLRLSCAASGITLHHNAMGWYRQAPGKERELVAAITSNGGSTYYADSVKGRFTISRDNAKNTVYLQMNSLKPEDTAVYYCARDSKRLARYYYWGQGTQVTVSS”: the “polyreactivity (PSR sort gate)” value is on record as “low polyreactivity”.

Consider “QVQLVESGGGLVQAGGSLRLSCAASGITLHYYAMGWYRQAPGKERELVATISRSGGSTYYADSVKGRFTISRDNAKNTVYLQMNSLKPEDTAVYYCAARSWGGYDSRGYWGQGTQVTVSS”, for which the “polyreactivity (PSR sort gate)” value is “high polyreactivity”.

Take “QVQLVESGGGLVQAGGSLRLSCAASGITLLYYAMGWYRQAPGKERELVAAISRRGGSTYYADSVKGRFTISRDNAKNTVYLQMNSLKPEDTAVYYCAAYSPYGGYHYLYDYWGQGTEVTVSS”: the “polyreactivity (PSR sort gate)” value is “high polyreactivity”.

As to “QVQLVESGGGLVQAGGSLRLSCAASGITLRGNAMGWYRQSPGKERELVAAIRTSGGRTYYADSVKGRFTISRDNAKNTVYLQMNSLIPEDTAVYYCAADYDSSYAYRTPYGYWGQGTQVTVSS”, the “polyreactivity (PSR sort gate)” value is listed as “low polyreactivity”.
